One assay concerns C. reinhardtii cells. The assay is described as follows: Confocal fluorescence microscopy localization of Venus fusion proteins. It counts as cell-based, Chlamydomonas reinhardtii. The settings on record: Venus fluorescence in C. reinhardtii cells. The source says:
A synthetic […] (Invitrogen) containing a 643 bp restriction fragment containing the C-terminus of Venus, followed by the sequence coding for the FLAG-tag sequence, and a sequence coding for three repetitions of the 15 C-terminal amino acids of SAGA2, was cloned into pLM005-FDX1, after restriction digestion with EcoRl and PfIMI. GenBank accession number of the empty pLM005 is KX077945.1. The plasmid pLM005-FDX1 is identical to pLM005 with the genomic sequence of FDX1 cloned in frame by Gibson Assembly (Mackinder et al., PNAS 113: 5958-5963, 2015) between residues 2698 and 3234. The terminal 85 amino acids of resultant mature fusion protein, immediately downstream of the FLAG-tag, were a 5 aa linker (GGGGS; SEQ ID NO: 87), a first copy of SAGA2 15 C-terminal aa, followed by a 10 aa linker (2X GGGGS; SEQ ID NO: 88), a second copy of SAGA2 15 last aa, another 10 aa linker (2X GGGGS; SEQ ID NO: 88), and finally a third copy of SAGA2 15 last aa. The sequence of the EcoRI-PfIMI digestion fragment (SEQ ID NO: 89) was cloned in frame into pLM005-FDX1.
Culturing and Transformation of C. reinhardtii: Culturing and transformation of C. reinhardtii for fluorescence localization of protein and imaging was performed as described in Mackinder et al. (PNAS 113: 5958-5963, 2015). […]

For the next assay, the system named is EPYC1. The assay is described as follows: Yeast two-hybrid assay of EPYC1 with Rubisco SSU variants. It is filed as cell-based, Chlamydomonas reinhardtii. Conditions: growth on SD-L-W-H with 3-AT, three days, FIGS. 9A-9C. The source says: FIGS. 9A-9C show the results of a yeast two-hybrid (Y2H) assay to measure the interaction between EPYC1 and Rubisco SSU variants. […] The images shown were taken following three days of cell growth. The Rubisco SSU residues that form salt bridges with EPYC1 residues are bolded (D23, E24, and R91) and the residues that form the hydrophobic pocket with EPYC1 residues are bolded and italicized (M87 and V94). The “Control” images were taken from cells grown for three days on SD-L-W media and the “Test” images were taken from cells grown for three days on SD-L-W-H with 3-AT. Growth of yeast cells expressing the indicated EPYC1 and Rubisco SSU variants was measured after three days on SD-L-W-H with varying 3-AT concentrations. The highest concentration of 3-AT (0, 1, 2.5, 5, 10, and 20 mM) permissive for the growth of each EPYC1 and Rubisco SSU variant combination is shown, as indicated in the “Key” on the right.
Mutagenesis of EPYC1, Mutagenesis of Rubisco, Yeast Two-hybrid, Peptide Arrays and SPR Assays To determine the importance of individual EPYC1 residues for binding to Rubisco, the impact on Rubisco binding of every possible single amino acid substitution for EPYC1 RBM 2 was determined (FIG. 8). To determine the importance of individual Rubisco residues for binding to EPYC1, targeted mutations of the amino acids identified from atomic modeling were tested in a yeast two-hybrid assay as in van Nues and Beggs (Genetics 157: 1451-1467, 2000). Peptide arrays and SPR assays were performed as in Example 1.

B1: RBM P1-Venus: Rubisco-Binding Membrane Protein 1 (SEQ ID NO: 1) fused to the Venus fluorescent protein (protein)
chain: MQCQLKHGARPQSQRPNWLPARAATLRPAVQHGVRRGLTLGVKAAAAPLEDKKMPADMTTRQYRRVVYDFALWAKHRDVNRYLYNLRTIPGSRIIRQLSQPMGVVLAWAALFGFYETCLEAGVLPSYLPKMTLMSAEPQGLTSFALSLLLVFRTNSSYGRFDEARKIWGGILNRARNIANQAVTFIPAEDQAGREAVGKWTVGFTRALQAHLQEDIDLRKELEKATPRWSKEEIDMLVNAQHRPIKAISVLSELTRQLSITQFQALQMQENCTFFYDALGGCERLLRTPIPVSYTRHTARFLTIWLAMLPLGLWERYHWSMLPVIALIGFLLLGIDEIGISIEEPFGILPLDAICGRAQTDVNSLLKEDPAVMKYVDDVRSGRVKSPPPLPPAPAAPAAAAAAAAAAARSVSPQPDVAKTLGSLFTNVRAGVGAVAPGAPLMPQAPVRSPSPTRSVSPSFPRASAGTGMPPPVGMNGATPRVAAAPPTPPPVSRPAAPAAAPAAGSGFTMPNFSASLSGLTGGAAAAAKSAADAASSKLTKMADSMSSGAAAPAPPAAPARPSTSPRPSASSPISSSADADRSDSSRRPVNWRDELQSLKATREPNGNGNGSGVAPAAGRADADEEALRRFGNLAGRSRSGNGGGGSSDTELSEANRPRTRPDWRNQL
Consider B1, for which, in the assay with C. reinhardtii cells (FIG. 15), the “localization pattern within the pyrenoid” value is “limited to an inner sphere of the Rubisco matrix”. Also, the localization entry in the assay on C. reinhardtii cells (FIGS. 14B and 15) was “localized to the pyrenoid”.

B2: D23A: C. reinhardtii Rubisco SSU with mutation D23A (protein)
chain: MMVWTPVNNKMFETFSYLPPLTAEQIAAQVDYIVANGWIPCLEFAEADKAYVSNESAIRFGSVSCLYYDNRYWTMWKLPMFGCRDPMQVLREIVACTKAFPDAYVRLVAFDNQKQVQIMGFLVQRPKTARDFQPANKRSV
modifications: left off: small tags and cut ends
As for B2, the “Rubisco SSU-EPYC1 interaction” value with EPYC1 is listed as “severe impact”.

B3: E24A: C. reinhardtii Rubisco SSU with mutation E24A (protein, UniProt P00873 46-185, looked up, variant E24A)
Ribulose bisphosphate …: MMVWTPVNNKMFETFSYLPPLTDAQIAAQVDYIVANGWIPCLEFAEADKAYVSNESAIRFGSVSCLYYDNRYWTMWKLPMFGCRDPMQVLREIVACTKAFPDAYVRLVAFDNQKQVQIMGFLVQRPKTARDFQPANKRSV
For B3, in the assay on EPYC1, the “Rubisco SSU-EPYC1 interaction” value is listed as “moderate defect”.

B4: V94D: C. reinhardtii Rubisco SSU with mutation V94D (protein, UniProt P00873 46-185, looked up, variant V94D)
Ribulose bisphosphate …: MMVWTPVNNKMFETFSYLPPLTDEQIAAQVDYIVANGWIPCLEFAEADKAYVSNESAIRFGSVSCLYYDNRYWTMWKLPMFGCRDPMQVLREIDACTKAFPDAYVRLVAFDNQKQVQIMGFLVQRPKTARDFQPANKRSV
On to B4, for which the “Rubisco SSU-EPYC1 interaction” value in the assay on EPYC1 is “severe impact”.

B5: M87D: C. reinhardtii Rubisco SSU with mutation M87D (protein, UniProt P00873 46-185, looked up, variant M87D)
Ribulose bisphosphate …: MMVWTPVNNKMFETFSYLPPLTDEQIAAQVDYIVANGWIPCLEFAEADKAYVSNESAIRFGSVSCLYYDNRYWTMWKLPMFGCRDPDQVLREIVACTKAFPDAYVRLVAFDNQKQVQIMGFLVQRPKTARDFQPANKRSV
For the molecule B5, the “Rubisco SSU-EPYC1 interaction” value in the assay with EPYC1 was “severe impact”.

B6: R91A: C. reinhardtii Rubisco SSU with mutation R91A (protein, UniProt P00873 46-185, looked up, variant R91A)
Ribulose bisphosphate …: MMVWTPVNNKMFETFSYLPPLTDEQIAAQVDYIVANGWIPCLEFAEADKAYVSNESAIRFGSVSCLYYDNRYWTMWKLPMFGCRDPMQVLAEIVACTKAFPDAYVRLVAFDNQKQVQIMGFLVQRPKTARDFQPANKRSV
For B6, the “Rubisco SSU-EPYC1 interaction” value in the assay with EPYC1 was “moderate defect”.

The record behind these values is patent US20220275390A1, “RUBISCO-BINDING PROTEIN MOTIFS AND USES THEREOF” (The Trustees of Princeton University, priority 2019, published 2022).
